{"source": "paper PMC3854711", "about": "“Handling Uncertainty in Dynamic Models: The Pentose Phosphate Pathway in Trypanosoma brucei” (PLoS Computational Biology, 2013)", "proteins": {"B1": {"name": "T. brucei ribokinase (Trypanosoma brucei brucei TREU927) (protein)", "chain": "MSAAGVKSGNGCIADTPIVVVGACFVDYVAYVDHLPQVGESLRCRSFSKGFGGKGSNQAVCAGRLGASVSMVGAVGTDGDGADYIANFQRNGVQVSNVYRMENTSTGLAMIFVDSTTSHNEIVFSPNATGALTVDYLRKQSDNYNNFFGPKCRYIILQNEIPVETTLDVLKEAHTRGIYTVFNAAPAPSADEVAVVKPFLSYVSLFCVNEVEASMITGIDVKDTQSAILATEEMQKLGAHSVVTTLGGNGYVIGEKGKPPRHLPSITVKAVDSTGAGDCFVGAMVFYLSMGKSLEESCKRANMIAAISVQRPGTQSSYPTLDELPAEVKECKI", "notes": "N-terminal His-tag from pET28a(+), expressed in E. coli BL21(DE3), Ni chelate purified"}}, "key": {"[1]": {"substrate": "Nc1ncnc2c1ncn2[C@@H]1O[C@H](COP(=O)(O)OP(=O)(O)OP(=O)(O)O)[C@@H](O)[C@H]1O", "assay": "coupled spectrophotometric assay (PK/LDH, NADH)", "format": "biochemical, Trypanosoma brucei", "conditions": "ribose co-substrate (5 mM), 10 mM MgCl2, pH 7, 25°C, ribose 5-phosphate production direction", "from_the_text": "coupled spectrophotometric assay (PK/LDH, NADH) on T. brucei ribokinase | enzyme kinetics of heterologously expressed T. brucei ribokinase were characterized"}, "[2]": {"substrate": "Nc1ncnc2c1ncn2[C@@H]1O[C@H](COP(=O)(O)OP(=O)(O)O)[C@@H](O)[C@H]1O", "assay": "coupled spectrophotometric assay (HXK/G6PDH, NADP)", "format": "biochemical, Trypanosoma brucei", "conditions": "ribose 5-phosphate co-substrate (5 mM), 10 mM MgCl2, pH 7, 25°C, reverse direction, ribose production", "from_the_text": "coupled spectrophotometric assay (HXK/G6PDH, NADP) on T. brucei ribokinase | the enzyme could indeed work in the ribose production direction"}}, "data": [{"protein": "B1", "values": [{"measurement": "Km", "setting": "[1]", "value": 240, "unit": "µM"}, {"measurement": "Km", "setting": "[2]", "value": 250, "unit": "µM"}]}]}
